T1: apelin receptor (AGTRL1) on CHO-K1 cells (UniProt P35414 1-380, limits assumed)
T1 sequence (looked up): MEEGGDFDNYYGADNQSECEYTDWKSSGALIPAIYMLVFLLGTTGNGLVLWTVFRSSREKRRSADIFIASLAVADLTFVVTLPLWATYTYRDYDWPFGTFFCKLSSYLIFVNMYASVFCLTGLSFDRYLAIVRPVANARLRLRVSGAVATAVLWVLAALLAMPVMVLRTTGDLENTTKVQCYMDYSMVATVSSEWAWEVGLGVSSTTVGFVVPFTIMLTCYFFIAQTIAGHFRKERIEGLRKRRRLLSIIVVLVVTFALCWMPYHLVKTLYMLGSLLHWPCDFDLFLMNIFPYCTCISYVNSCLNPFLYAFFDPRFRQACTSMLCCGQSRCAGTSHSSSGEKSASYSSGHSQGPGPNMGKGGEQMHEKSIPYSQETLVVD

B1: APL-B: Fc-linker fusion of apelin analogue QRPRLSHKGPMVF (P12V) (protein)
chain: MRAWIFFLLCLAGRALADKTHTSPPSPAPEAAGGPSVFLFPPKPKDTLMISRTPEVTCVVVDVSHEDPEVKFNWYVDGVEVHNAKTKPREEQYNSTYRVVSVLTVLHQDWLNGKEYKCKVSNKALPAPIEKTISKAKGQPREPQVYTLPPSREEMTKNQVNLTCLVKGFYPSDIAVEWESNGQPENNYKTTPPVLDSDGSFFLNSTLTVDKSRWQQGNVFSCSVMHEALHNHYTQKSLSLSPGKGGGGSGGGGSGGGGSQRPRLSHKGPMVF
B2: APL-E: Fc-linker fusion of apelin analogue QRPRLSHKGPHPF (M11H) (protein)
chain: MRAWIFFLLCLAGRALADKTHTSPPSPAPEAAGGPSVFLFPPKPKDTLMISRTPEVTCVVVDVSHEDPEVKFNWYVDGVEVHNAKTKPREEQYNSTYRVVSVLTVLHQDWLNGKEYKCKVSNKALPAPIEKTISKAKGQPREPQVYTLPPSREEMTKNQVNLTCLVKGFYPSDIAVEWESNGQPENNYKTTPPVLDSDGSFFLNSTLTVDKSRWQQGNVFSCSVMHEALHNHYTQKSLSLSPGKGGGGSGGGGSGGGGSQRPRLSHKGPHPF
B3: APL-F: Fc-linker fusion of apelin analogue QRPRLSHKGPAPY (M11A, F13Y) (protein)
chain: MRAWIFFLLCLAGRALADKTHTSPPSPAPEAAGGPSVFLFPPKPKDTLMISRTPEVTCVVVDVSHEDPEVKFNWYVDGVEVHNAKTKPREEQYNSTYRVVSVLTVLHQDWLNGKEYKCKVSNKALPAPIEKTISKAKGQPREPQVYTLPPSREEMTKNQVNLTCLVKGFYPSDIAVEWESNGQPENNYKTTPPVLDSDGSFFLNSTLTVDKSRWQQGNVFSCSVMHEALHNHYTQKSLSLSPGKGGGGSGGGGSGGGGSQRPRLSHKGPAPY
B4: APL-G: Fc-linker fusion of apelin analogue QRPRLSHKGPMAF (P12A) (protein)
chain: MRAWIFFLLCLAGRALADKTHTSPPSPAPEAAGGPSVFLFPPKPKDTLMISRTPEVTCVVVDVSHEDPEVKFNWYVDGVEVHNAKTKPREEQYNSTYRVVSVLTVLHQDWLNGKEYKCKVSNKALPAPIEKTISKAKGQPREPQVYTLPPSREEMTKNQVNLTCLVKGFYPSDIAVEWESNGQPENNYKTTPPVLDSDGSFFLNSTLTVDKSRWQQGNVFSCSVMHEALHNHYTQKSLSLSPGKGGGGSGGGGSGGGGSQRPRLSHKGPMAF
B5: ELA-I (Fc fusion)
chain: DKTHTSPPSPAPEAAGGPSVFLFPPKPKDTLMISRTPEVTCVVVDVSHEDPEVKFNWYVDGVEVHNAKTKPREEQYNSTYRVVSVLTVLHQDWLNGKEYKCKVSNKALPAPIEKTISKAKGQPREPQVYTLPPSREEMTKNQVNLTCLVKGFYPSDIAVEWESNGQPENNYKTTPPVLDSDGSFFLNSTLTVDKSRWQQGNVFSCSVMHEALHNHYTQKSLSLSPGKGGGGSGGGGSGGGGSKLRKHNSLQRRYMPLHSRVPFP
B6: ELA-J (Fc fusion)
chain: DKTHTSPPSPAPEAAGGPSVFLFPPKPKDTLMISRTPEVTCVVVDVSHEDPEVKFNWYVDGVEVHNAKTKPREEQYNSTYRVVSVLTVLHQDWLNGKEYKCKVSNKALPAPIEKTISKAKGQPREPQVYTLPPSREEMTKNQVNLTCLVKGFYPSDIAVEWESNGQPENNYKTTPPVLDSDGSFFLNSTLTVDKSRWQQGNVFSCSVMHEALHNHYTQKSLSLSPGKGGGGSGGGGSGGGGSKLRKHNCLQERCMPLHSRVPFP
B7: ELA-A: Fc-linker fusion of wild-type elabela-22 KLRKHNCLQRRCMPLHSRVPFP (protein)
chain: MRAWIFFLLCLAGRALADKTHTSPPSPAPEAAGGPSVFLFPPKPKDTLMISRTPEVTCVVVDVSHEDPEVKFNWYVDGVEVHNAKTKPREEQYNSTYRVVSVLTVLHQDWLNGKEYKCKVSNKALPAPIEKTISKAKGQPREPQVYTLPPSREEMTKNQVNLTCLVKGFYPSDIAVEWESNGQPENNYKTTPPVLDSDGSFFLNSTLTVDKSRWQQGNVFSCSVMHEALHNHYTQKSLSLSPGKGGGGSGGGGSGGGGSKLRKHNCLQRRCMPLHSRVPFP
B8: ELA-B: Fc-linker fusion of elabela analogue KLNKHNCLQRRCMPLHSRVPFP (R3N) (protein)
chain: MRAWIFFLLCLAGRALADKTHTSPPSPAPEAAGGPSVFLFPPKPKDTLMISRTPEVTCVVVDVSHEDPEVKFNWYVDGVEVHNAKTKPREEQYNSTYRVVSVLTVLHQDWLNGKEYKCKVSNKALPAPIEKTISKAKGQPREPQVYTLPPSREEMTKNQVNLTCLVKGFYPSDIAVEWESNGQPENNYKTTPPVLDSDGSFFLNSTLTVDKSRWQQGNVFSCSVMHEALHNHYTQKSLSLSPGKGGGGSGGGGSGGGGSKLNKHNCLQRRCMPLHSRVPFP
B9: ELA-C: Fc-linker fusion of elabela analogue KLRKHNCLQRRCMILHSRVPFP (P14I) (protein)
chain: MRAWIFFLLCLAGRALADKTHTSPPSPAPEAAGGPSVFLFPPKPKDTLMISRTPEVTCVVVDVSHEDPEVKFNWYVDGVEVHNAKTKPREEQYNSTYRVVSVLTVLHQDWLNGKEYKCKVSNKALPAPIEKTISKAKGQPREPQVYTLPPSREEMTKNQVNLTCLVKGFYPSDIAVEWESNGQPENNYKTTPPVLDSDGSFFLNSTLTVDKSRWQQGNVFSCSVMHEALHNHYTQKSLSLSPGKGGGGSGGGGSGGGGSKLRKHNCLQRRCMILHSRVPFP
B10: ELA-I: Fc-linker fusion of elabela analogue KLRKHNSLQRRYMPLHSRVPFP (C7S, C12Y) (protein)
chain: MRAWIFFLLCLAGRALADKTHTSPPSPAPEAAGGPSVFLFPPKPKDTLMISRTPEVTCVVVDVSHEDPEVKFNWYVDGVEVHNAKTKPREEQYNSTYRVVSVLTVLHQDWLNGKEYKCKVSNKALPAPIEKTISKAKGQPREPQVYTLPPSREEMTKNQVNLTCLVKGFYPSDIAVEWESNGQPENNYKTTPPVLDSDGSFFLNSTLTVDKSRWQQGNVFSCSVMHEALHNHYTQKSLSLSPGKGGGGSGGGGSGGGGSKLRKHNSLQRRYMPLHSRVPFP
B11: ELA-G: Fc-linker fusion of elabela analogue KLRKHNCLQRRCMPLHSYVPFP (R18Y) (protein)
chain: MRAWIFFLLCLAGRALADKTHTSPPSPAPEAAGGPSVFLFPPKPKDTLMISRTPEVTCVVVDVSHEDPEVKFNWYVDGVEVHNAKTKPREEQYNSTYRVVSVLTVLHQDWLNGKEYKCKVSNKALPAPIEKTISKAKGQPREPQVYTLPPSREEMTKNQVNLTCLVKGFYPSDIAVEWESNGQPENNYKTTPPVLDSDGSFFLNSTLTVDKSRWQQGNVFSCSVMHEALHNHYTQKSLSLSPGKGGGGSGGGGSGGGGSKLRKHNCLQRRCMPLHSYVPFP
B12: ELA-F: Fc-linker fusion of elabela analogue KLRKHNCLKRRCMPLHSRVPFP (Q9K) (protein)
chain: MRAWIFFLLCLAGRALADKTHTSPPSPAPEAAGGPSVFLFPPKPKDTLMISRTPEVTCVVVDVSHEDPEVKFNWYVDGVEVHNAKTKPREEQYNSTYRVVSVLTVLHQDWLNGKEYKCKVSNKALPAPIEKTISKAKGQPREPQVYTLPPSREEMTKNQVNLTCLVKGFYPSDIAVEWESNGQPENNYKTTPPVLDSDGSFFLNSTLTVDKSRWQQGNVFSCSVMHEALHNHYTQKSLSLSPGKGGGGSGGGGSGGGGSKLRKHNCLKRRCMPLHSRVPFP

Key:
[1] = tested on: APJ-eGFP fusion protein; test: Internalization assay, CHO-M1 cells expressing APJ-eGFP, high-content imaging; type: cell-based; details: lowest concentration at which maximum internalization was observed; 0.914 nM to 2000 nM
Method: In this example, the internalization of exemplary apelin receptor agonist was assessed. CHO-M1 cells expressing an APJ-eGFP fusion protein were stained and plated in a 96-well plate. Apelin receptor agonists were serially diluted and added to the wells at concentrations ranging from 0.914 nM to 2000 nM. The cells were later imaged using an Operetta CLS™ high-content analysis system. APJ-eGFP signal was measured in the membrane and cytoplasmic region, and the ratio of membrane signal to total signal was calculated (E ratio). An internalization score was assigned based on the lowest concentration of the compound at which maximum internalization was observed. The internalization score for each apelin receptor agonist was plotted against the EC50 values for cAMP signaling and beta-arrestin signaling as shown in FIG. 2 and FIG. 3.

[2] = Proteolysis during production detected using mass spectroscopy; type: physicochemical; details: proteolytic stability
Source text: Proteolysis during production was detected using mass spectroscopy, which provides insights into the proteolytic stability of the apelin receptor agonists.

[3] = molecular target: T1, apelin receptor (AGTRL1) on CHO-K1 cells; test: cell-based or functional assay

Row | Molecule | Internalization Score [1] | Proteolysis During Production? [2] | further results
1 | CSCC[C@H](NC(=O)[C@@H]1CSSC[C@H](NC(=O)[C@H](CC(N)=O)NC(=O)[C@H](Cc2c[nH]cn2)NC(=O)[C@H](CCCCN)NC(=O)[C@H](CCCNC(=N)N)NC(=O)[C@H](CC(C)C)NC(=O)[C@@H](N)CCCCN)C(=O)N[C@@H](CC(C)C)C(=O)N[C@@H](CCC(N)=O)C(=O)N[C@@H](CCCNC(=N)N)C(=O)N[C@@H](CCCNC(=N)N)C(=O)N1)C(=O)N1CCC[C@H]1C(=O)N[C@@H](CC(C)C)C(=O)N[C@@H](Cc1c[nH]cn1)C(=O)N[C@@H](CO)C(=O)N[C@@H](CCCNC(=N)N)C(=O)N[C@H](C(=O)N1CCC[C@H]1C(=O)N[C@@H](Cc1ccccc1)C(=O)N1CCC[C@H]1C(=O)O)C(C)C [Elabela-22, elabela-22, reference compound] | 1 (>1000) | – | –
2 | B1 | 2 (100-1000) | No | –
3 | B2 | 1 (>1000) | Yes | –
4 | B3 | 1 (>1000) | No | –
5 | B4 | 3 (10-100) | No | –
6 | B5 | – | – | beta-Arrestin EC50 (nM) Exp. 1 [3]: 17.3 nM; beta-Arrestin EC50 (nM) Exp. 2 [3]: 150 nM; cAMP EC50 (nM) Exp. 1 [3]: 22.9 nM; cAMP EC50 (nM) Exp. 2 [3]: 3.19 nM
7 | B6 | – | – | beta-Arrestin EC50 (nM) Exp. 1 [3]: 73.7 nM; cAMP EC50 (nM) Exp. 1 [3]: 18.6 nM; cAMP EC50 (nM) Exp. 2 [3]: 133 nM
8 | B7 | 3 (10-100) | No | –
9 | B8 | 3 (10-100) | No | –
10 | B9 | 2 (100-1000) | No | –
11 | B10 | – | Yes | –
12 | B11 | 1 (>1000) | No | –
13 | B12 | 3 (10-100) | No | –

Reference: patent US20240383958A1, “APELIN RECEPTOR AGONISTS AND USES THEREOF” (VISTERRA, INC., priority 2023, published 2024)
